Results taken from patent publication US20260008815A1, “CYCLIC PEPTIDE OR SALT THEREOF, AND USES THEREOF” (FUJIFILM Corporation, priority 2023, published 2026).
Bridge positions count the residues as written; N and C are the ends. Ends that are not written are not given here. COCH2 = acetyl group that carries the bridge

Each substance was assayed against T1, Recombinant Human FGFR2 alpha (IIIc) Fc Chimera Protein (Homo sapiens, UniProt P21802) (assay: ELISA binding affinity of enzymatically synthesized peptide to FGFR). Conditions: ELISA luminescence signal at 10 nmol/L peptide, SEQ ID NO: 47 at 10 nmol/L standardized to 1; enzyme synthesis product.
T1 construct: Fc (chimera); purchased R&D systems 712-FR-050
T1 sequence (P21802 with tags, fused parts or gaps limits assumed): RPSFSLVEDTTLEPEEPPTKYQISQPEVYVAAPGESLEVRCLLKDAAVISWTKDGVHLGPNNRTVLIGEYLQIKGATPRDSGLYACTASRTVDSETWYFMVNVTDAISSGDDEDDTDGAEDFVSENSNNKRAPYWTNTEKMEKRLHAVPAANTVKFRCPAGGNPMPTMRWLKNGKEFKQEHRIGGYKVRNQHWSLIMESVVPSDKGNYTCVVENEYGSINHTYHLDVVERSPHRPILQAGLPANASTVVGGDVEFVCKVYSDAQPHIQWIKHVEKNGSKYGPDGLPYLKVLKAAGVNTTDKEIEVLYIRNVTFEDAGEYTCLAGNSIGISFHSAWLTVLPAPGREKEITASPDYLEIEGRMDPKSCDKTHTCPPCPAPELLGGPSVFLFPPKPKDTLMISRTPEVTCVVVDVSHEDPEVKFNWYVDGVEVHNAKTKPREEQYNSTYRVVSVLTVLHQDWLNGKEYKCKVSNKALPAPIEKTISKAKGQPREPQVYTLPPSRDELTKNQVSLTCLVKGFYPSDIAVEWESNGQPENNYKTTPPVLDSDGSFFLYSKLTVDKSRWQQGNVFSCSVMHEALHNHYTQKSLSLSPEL
How it was run: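 FGFR2 alpha (IIIc) Fc chimera (5 ng/well) was immobilized, and Myc-tagged peptide was bound 3 h at room temperature, then detected with anti-Myc antibody (2 h) and chemiluminescent substrate. Signal was corrected against FGFR-free wells. Score A–D was the luminescence at 10 nmol/L peptide, normalized to cyclic peptide SEQ ID NO: 47.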
For “287 (YCEENYLDPEQYQYFDYFK(COCH2)Y; thioether 2-19) [compound 287]”, the “Evaluation result of binding affinity to FGFR” value (from here on “Evaluation result”) was “A (0.7 or more)”. For “288 (YCEENYLDPEQYQYFEYFK(COCH2)Y; thioether 2-19) [compound 288]”, the “Evaluation result” value was “A (0.7 or more)”. For “289 (YCEENYLDPEQYQYFRYFK(COCH2)Y; thioether 2-19) [compound 289]”, the “Evaluation result” value was “A (0.7 or more)”. In the case of “290 (YCEENYLDPEQYQYFHYFK(COCH2)Y; thioether 2-19) [compound 290]”, the “Evaluation result” value is reported as “A (0.7 or more)”. For “291 (YCEENYLDPEQYQYFIGFK(COCH2)Y; thioether 2-19) [compound 291]”, the “Evaluation result” value was “B (0.5 or more and less than 0.7)”. With “292 (YCEENYLDPEQYQYFIPFK(COCH2)Y; thioether 2-19) [compound 292]” the “Evaluation result” value was “C (0.1 or more and less than 0.5)”. For “293 (YCEENYLDPEQYQYFILFK(COCH2)Y; thioether 2-19) [compound 293]”, the “Evaluation result” value was “A (0.7 or more)”. For “294 (YCEENYLDPEQYQYFIIFK(COCH2)Y; thioether 2-19) [compound 294]”, the “Evaluation result” value was “B (0.5 or more and less than 0.7)”. With “295 (YCEENYLDPEQYQYFIVFK(COCH2)Y; thioether 2-19) [compound 295]” the “Evaluation result” value was “A (0.7 or more)”. “296 (YCEENYLDPEQYQYFIFFK(COCH2)Y; thioether 2-19) [compound 296]” was tested, and the “Evaluation result” value was “A (0.7 or more)”. For “297 (YCEENYLDPEQYQYFIWFK(COCH2)Y; thioether 2-19) [compound 297]”, the “Evaluation result” value was “A (0.7 or more)”. For “298 (YCEENYLDPEQYQYFINFK(COCH2)Y; thioether 2-19) [compound 298]”, the “Evaluation result” value was “A (0.7 or more)”. “299 (YCEENYLDPEQYQYFIQFK(COCH2)Y; thioether 2-19) [compound 299]” was tested, and the “Evaluation result” value was “A (0.7 or more)”. “300 (YCEENYLDPEQYQYFISFK(COCH2)Y; thioether 2-19 (inferred)) [compound 300]” was tested, and the “Evaluation result” value was “A (0.7 or more)”. For “301 (YCEENYLDPEQYQYFITFK(COCH2)Y; thioether 2-19 (inferred)) [compound 301]”, the “Evaluation result” value was “A (0.7 or more)”. For “302 (YCEENYLDPEQYQYFIDFK(COCH2)Y; thioether 2-19 (inferred)) [compound 302]”, the “Evaluation result” value was “A (0.7 or more)”. For “303 (YCEENYLDPEQYQYFIEFK(COCH2)Y; thioether 2-19 (inferred)) [compound 303]”, the “Evaluation result” value was “A (0.7 or more)”. For “304 (YCEENYLDPEQYQYFIRFK(COCH2)Y; thioether 2-19 (inferred)) [compound 304]”, the “Evaluation result” value was “A (0.7 or more)”. With “305 (YCEENYLDPEQYQYFIHFK(COCH2)Y; thioether 2-19 (inferred)) [compound 305]” the “Evaluation result” value was “A (0.7 or more)”. In the case of “306 (YCEENYLDPEQYQYFIYYK(COCH2)Y; thioether 2-19 (inferred)) [compound 306]”, the “Evaluation result” value is reported as “A (0.7 or more)”. With “307 (YCEENYLDPEQYQYFIYWK(COCH2)Y; thioether 2-19 (inferred)) [compound 307]” the “Evaluation result” value was “A (0.7 or more)”. In the case of “308 (YCEENYLDPEQYQYFIYFK(COCH2)G; thioether 2-19 (inferred)) [compound 308]”, the “Evaluation result” value is reported as “A (0.7 or more)”. For “309 (YCEENYLDPEQYQYFIYFK(COCH2)L; thioether 2-19 (inferred)) [compound 309]”, the “Evaluation result” value was “A (0.7 or more)”. In the case of “310 (YCEENYLDPEQYQYFIYFK(COCH2)I; thioether 2-19 (inferred)) [compound 310]”, the “Evaluation result” value is reported as “A (0.7 or more)”. For “311 (YCEENYLDPEQYQYFIYFK(COCH2)V; thioether 2-19 (inferred)) [compound 311]”, the “Evaluation result” value was “A (0.7 or more)”. With “312 (YCEENYLDPEQYQYFIYFK(COCH2)F; thioether 2-19 (inferred)) [compound 312]” the “Evaluation result” value was “A (0.7 or more)”. In the case of “313 (YCEENYLDPEQYQYFIYFK(COCH2)W; thioether 2-19 (inferred)) [compound 313]”, the “Evaluation result” value is reported as “A (0.7 or more)”. In the case of “314 (YCEENYLDPEQYQYFIYFK(COCH2)N; thioether 2-19 (inferred)) [compound 314]”, the “Evaluation result” value is reported as “A (0.7 or more)”. With “315 (YCEENYLDPEQYQYFIYFK(COCH2)Q; thioether 2-19 (inferred)) [compound 315]” the “Evaluation result” value was “A (0.7 or more)”. With “316 (YCEENYLDPEQYQYFIYFK(COCH2)S; thioether 2-19 (inferred)) [compound 316]” the “Evaluation result” value was “A (0.7 or more)”. “317 (YCEENYLDPEQYQYFIYFK(COCH2)T; thioether 2-19 (inferred)) [compound 317]” was tested, and the “Evaluation result” value was “A (0.7 or more)”. In the case of “318 (YCEENYLDPEQYQYFIYFK(COCH2)D; thioether 2-19 (inferred)) [compound 318]”, the “Evaluation result” value is reported as “A (0.7 or more)”. With “319 (YCEENYLDPEQYQYFIYFK(COCH2)E; thioether 2-19 (inferred)) [compound 319]” the “Evaluation result” value was “A (0.7 or more)”. In the case of “320 (YCEENYLDPEQYQYFIYFK(COCH2)R; thioether 2-19 (inferred)) [compound 320]”, the “Evaluation result” value is reported as “A (0.7 or more)”. With “321 (YCEENYLDPEQYQYFIYFK(COCH2)H; thioether 2-19 (inferred)) [compound 321]” the “Evaluation result” value was “A (0.7 or more)”. With “322 (ACEENYLDPEQYQYFIYFK(COCH2)Y; thioether 2-19 (inferred)) [compound 322]” the “Evaluation result” value was “A (0.7 or more)”. In the case of “323 (YCAENYLDPEQYQYFIYFK(COCH2)Y; thioether 2-19 (inferred)) [compound 323]”, the “Evaluation result” value is reported as “A (0.7 or more)”. For “324 (YCEANYLDPEQYQYFIYFK(COCH2)Y; thioether 2-19 (inferred)) [compound 324]”, the “Evaluation result” value was “A (0.7 or more)”. For “325 (YCEEAYLDPEQYQYFIYFK(COCH2)Y; thioether 2-19 (inferred)) [compound 325]”, the “Evaluation result” value was “C (0.1 or more and less than 0.5)”. With “326 (YCEENALDPEQYQYFIYFK(COCH2)Y; thioether 2-19 (inferred)) [compound 326]” the “Evaluation result” value was “C (0.1 or more and less than 0.5)”. For “327 (YCEENYADPEQYQYFIYFK(COCH2)Y; thioether 2-19 (inferred)) [compound 327]”, the “Evaluation result” value was “C (0.1 or more and less than 0.5)”. With “328 (YCEENYLAPEQYQYFIYFK(COCH2)Y; thioether 2-19 (inferred)) [compound 328]” the “Evaluation result” value was “A (0.7 or more)”. In the case of “329 (YCEENYLDAEQYQYFIYFK(COCH2)Y; thioether 2-19 (inferred)) [compound 329]”, the “Evaluation result” value is reported as “A (0.7 or more)”. With “330 (YCEENYLDPAQYQYFIYFK(COCH2)Y; thioether 2-19 (inferred)) [compound 330]” the “Evaluation result” value was “A (0.7 or more)”. With “331 (YCEENYLDPEQYAYFIYFK(COCH2)Y; thioether 2-19 (inferred)) [compound 331]” the “Evaluation result” value was “A (0.7 or more)”.
